# Measured values reported in patent US20150337049A1 (Genmab, published 2015).
# Experiments:
# [1] = biological target: T1, HER2 on HER2-positive AU565 cells (human, UniProt P04626 23-1255); assay: FACS, AU565 cells
# T1 construct: whole, on cells
# Protocol: Cells (1×10^5 cells/well) were incubated in polystyrene 96-well round-bottom plates (Greiner bio-one 650101) with serial dilutions of antibody preparations (range 2 to 10000 ng/mL in 4-fold dilutions for Jurkat cells and range 1 to 3000 ng/mL in 4-fold dilutions for on AU565 cells) in 100 μL PBS/0.1% BSA/0.02% azide at 4° C. for 30 min.
# After washing twice in PBS/0.1% BSA/0.02% azide, cells were incubated in 100 μL with secondary antibody at 4° C. for 30 min. As a secondary antibody, R-Phycoerythrin (PE)-conjugated goat-anti-human IgG F(ab′)₂ (109-116-098, Jackson ImmunoResearch Laboratories, Inc., West Grove, Pa.) diluted 1/100 in PBS/0.1% BSA/0.02% azide, was used for all experiments. Next, cells were washed twice in PBS/0.1% BSA/0.02% azide, resuspended in 150 μL PBS/0.1% BSA/0.02% azide and analyzed on a FACS CantoII (BD Biosciences). Binding curves were analyzed using non-linear regression (sigmoidal dose-response with variable slope) using GraphPad Prism V5.04 software (GraphPad Software, San Diego, Calif., USA).
# [2] = biological target: T2, C1q (from 3% pooled human serum) (human, UniProt P02745 23-245; P02746 28-253; P02747 29-245); assay: ELISA, antibody coated, 3% pooled human serum, anti-C1q detection
# T2 construct: Native C1q of pooled human serum, detected with rabbit anti-human C1q
# Protocol: Plates were washed and blocked with PBS supplemented with 0.025% Tween 20 and 0.1% gelatine. […] Detection was performed by addition of 1 mg/mL 2,2′-azino-bis(3-ethylbenzothiazoline-6-sulfonic acid) (ABTS; Roche, Mannheim, Germany) for about 30 min. The reaction was stopped by the addition of 100 μL 2% oxalic acid. Absorbance was measured at 405 nm in a microplate reader (Biotek, Winooski, Vt.). Log transformed data were analyzed by fitting sigmoidal dose-response curves with variable slope using GraphPad Prism software.
binding result [1],Binder,binding result [2]
binds,bsIgG1-CD3×HER2-DANQ (IgG1-huCLB-T3/4×HER2-169 with D265A/N297Q) (bispecific antibody) heavy 1: EVQLVESGGGLVKPGGSLRLSCAASGFTFSSYGMFWVRQAPGKGLEWVATISRYSRYIYYPDSVKGRFTISRDNAKNSLYLQMNSLRAEDTAVYYCARRPLYGSSPDYWGQGTLVTVSSASTKGPSVFPLAPSSKSTSGGTAALGCLVKDYFPEPVTVSWNSGALTSGVHTFPAVLQSSGLYSLSSVVTVPSSSLGTQTYICNVNHKPSNTKVDKRVEPKSCDKTHTCPPCPAPELLGGPSVFLFPPKPKDTLMISRTPEVTCVVVAVSHEDPEVKFNWYVDGVEVHNAKTKPREEQYQSTYRVVSVLTVLHQDWLNGKEYKCKVSNKALPAPIEKTISKAKGQPREPQVYTLPPSREEMTKNQVSLTCLVKGFYPSDIAVEWESNGQPENNYKTTPPVLDSDGSFLLYSKLTVDKSRWQQGNVFSCSVMHEALHNHYTQKSLSLSPGK VL 1: EIVLTQSPATLSLSPGERATLSCSASSSVTYVHWYQQKPGQAPRLLIYDTSKLASGIPARFSGSGSGTDFTLTISSLEPEDFAVYYCFQGSGYPLTFGSGTKLEMR heavy 2: QVQLVQSGAEVKKPGASVKVSCKASGYTFTNYGISWVRQAPGQGLEWMGWLSAYSGNTIYAQKLQGRVTMTTDTSTTTAYMELRSLRSDDTAVYYCARDRIVVRPDYFDYWGQGTLVTVSSASTKGPSVFPLAPSSKSTSGGTAALGCLVKDYFPEPVTVSWNSGALTSGVHTFPAVLQSSGLYSLSSVVTVPSSSLGTQTYICNVNHKPSNTKVDKRVEPKSCDKTHTCPPCPAPELLGGPSVFLFPPKPKDTLMISRTPEVTCVVVAVSHEDPEVKFNWYVDGVEVHNAKTKPREEQYQSTYRVVSVLTVLHQDWLNGKEYKCKVSNKALPAPIEKTISKAKGQPREPQVYTLPPSREEMTKNQVSLTCLVKGFYPSDIAVEWESNGQPENNYKTTPPVLDSDGSFFLYSRLTVDKSRWQQGNVFSCSVMHEALHNHYTQKSLSLSPGK VL 2: EIVLTQSPATLSLSPGERATLSCRASQSVSSYLAWYQQKPGQAPRLLIYDASNRATGIPARFSGSGSGTDFTLTISSLEPEDFAVYYCQQRSNWPRTFGQGTKVEIK,no binding (tested: coated at 7-30000 ng/mL)
binds,bsIgG1-CD3×HER2-LALA (IgG1-huCLB-T3/4×HER2-169 with L234A/L235A) (bispecific antibody) heavy 1: EVQLVESGGGLVKPGGSLRLSCAASGFTFSSYGMFWVRQAPGKGLEWVATISRYSRYIYYPDSVKGRFTISRDNAKNSLYLQMNSLRAEDTAVYYCARRPLYGSSPDYWGQGTLVTVSSASTKGPSVFPLAPSSKSTSGGTAALGCLVKDYFPEPVTVSWNSGALTSGVHTFPAVLQSSGLYSLSSVVTVPSSSLGTQTYICNVNHKPSNTKVDKRVEPKSCDKTHTCPPCPAPEAAGGPSVFLFPPKPKDTLMISRTPEVTCVVVDVSHEDPEVKFNWYVDGVEVHNAKTKPREEQYNSTYRVVSVLTVLHQDWLNGKEYKCKVSNKALPAPIEKTISKAKGQPREPQVYTLPPSREEMTKNQVSLTCLVKGFYPSDIAVEWESNGQPENNYKTTPPVLDSDGSFLLYSKLTVDKSRWQQGNVFSCSVMHEALHNHYTQKSLSLSPGK VL 1: EIVLTQSPATLSLSPGERATLSCSASSSVTYVHWYQQKPGQAPRLLIYDTSKLASGIPARFSGSGSGTDFTLTISSLEPEDFAVYYCFQGSGYPLTFGSGTKLEMR heavy 2: QVQLVQSGAEVKKPGASVKVSCKASGYTFTNYGISWVRQAPGQGLEWMGWLSAYSGNTIYAQKLQGRVTMTTDTSTTTAYMELRSLRSDDTAVYYCARDRIVVRPDYFDYWGQGTLVTVSSASTKGPSVFPLAPSSKSTSGGTAALGCLVKDYFPEPVTVSWNSGALTSGVHTFPAVLQSSGLYSLSSVVTVPSSSLGTQTYICNVNHKPSNTKVDKRVEPKSCDKTHTCPPCPAPEAAGGPSVFLFPPKPKDTLMISRTPEVTCVVVDVSHEDPEVKFNWYVDGVEVHNAKTKPREEQYNSTYRVVSVLTVLHQDWLNGKEYKCKVSNKALPAPIEKTISKAKGQPREPQVYTLPPSREEMTKNQVSLTCLVKGFYPSDIAVEWESNGQPENNYKTTPPVLDSDGSFFLYSRLTVDKSRWQQGNVFSCSVMHEALHNHYTQKSLSLSPGK VL 2: EIVLTQSPATLSLSPGERATLSCRASQSVSSYLAWYQQKPGQAPRLLIYDASNRATGIPARFSGSGSGTDFTLTISSLEPEDFAVYYCQQRSNWPRTFGQGTKVEIK,no binding (tested: coated at 7-30000 ng/mL)
binds,bsIgG1-CD3×HER2-DAPS (IgG1-huCLB-T3/4×HER2-169 with D265A/P331S) (bispecific antibody) heavy 1: EVQLVESGGGLVKPGGSLRLSCAASGFTFSSYGMFWVRQAPGKGLEWVATISRYSRYIYYPDSVKGRFTISRDNAKNSLYLQMNSLRAEDTAVYYCARRPLYGSSPDYWGQGTLVTVSSASTKGPSVFPLAPSSKSTSGGTAALGCLVKDYFPEPVTVSWNSGALTSGVHTFPAVLQSSGLYSLSSVVTVPSSSLGTQTYICNVNHKPSNTKVDKRVEPKSCDKTHTCPPCPAPELLGGPSVFLFPPKPKDTLMISRTPEVTCVVVAVSHEDPEVKFNWYVDGVEVHNAKTKPREEQYNSTYRVVSVLTVLHQDWLNGKEYKCKVSNKALPASIEKTISKAKGQPREPQVYTLPPSREEMTKNQVSLTCLVKGFYPSDIAVEWESNGQPENNYKTTPPVLDSDGSFLLYSKLTVDKSRWQQGNVFSCSVMHEALHNHYTQKSLSLSPGK VL 1: EIVLTQSPATLSLSPGERATLSCSASSSVTYVHWYQQKPGQAPRLLIYDTSKLASGIPARFSGSGSGTDFTLTISSLEPEDFAVYYCFQGSGYPLTFGSGTKLEMR heavy 2: QVQLVQSGAEVKKPGASVKVSCKASGYTFTNYGISWVRQAPGQGLEWMGWLSAYSGNTIYAQKLQGRVTMTTDTSTTTAYMELRSLRSDDTAVYYCARDRIVVRPDYFDYWGQGTLVTVSSASTKGPSVFPLAPSSKSTSGGTAALGCLVKDYFPEPVTVSWNSGALTSGVHTFPAVLQSSGLYSLSSVVTVPSSSLGTQTYICNVNHKPSNTKVDKRVEPKSCDKTHTCPPCPAPELLGGPSVFLFPPKPKDTLMISRTPEVTCVVVAVSHEDPEVKFNWYVDGVEVHNAKTKPREEQYNSTYRVVSVLTVLHQDWLNGKEYKCKVSNKALPASIEKTISKAKGQPREPQVYTLPPSREEMTKNQVSLTCLVKGFYPSDIAVEWESNGQPENNYKTTPPVLDSDGSFFLYSRLTVDKSRWQQGNVFSCSVMHEALHNHYTQKSLSLSPGK VL 2: EIVLTQSPATLSLSPGERATLSCRASQSVSSYLAWYQQKPGQAPRLLIYDASNRATGIPARFSGSGSGTDFTLTISSLEPEDFAVYYCQQRSNWPRTFGQGTKVEIK,no binding (tested: coated at 7-30000 ng/mL)
